Reference: patent US20210253706A1

Legend:
[1] = biological target: human PD-1 expressed on cells (human) (UniProt Q15116); assay: flow cytometry; blocking of 0.1 µg/mL soluble PD-L2 (mFc-Alexa647) binding to HEK 293T cells expressing PD-1 and ICOS
[2] = biological target: human PD-1 expressed on cells (human) (UniProt Q15116); assay: flow cytometry; blocking of 1 µg/mL PD-L1-mFc-Alexa647 binding to HEK 293T cells expressing PD-1 and ICOS
[3] = biological target: human ICOS expressed on cells (human) (UniProt Q9Y6W8); assay: flow cytometry; blocking of 0.5 µg/mL ICOSL-mFc-Alex647 binding to HEK 293T cells expressing PD-1 and ICOS
Sequence of human ICOS expressed on cells (human) (Q9Y6W8 21-199 limits assumed): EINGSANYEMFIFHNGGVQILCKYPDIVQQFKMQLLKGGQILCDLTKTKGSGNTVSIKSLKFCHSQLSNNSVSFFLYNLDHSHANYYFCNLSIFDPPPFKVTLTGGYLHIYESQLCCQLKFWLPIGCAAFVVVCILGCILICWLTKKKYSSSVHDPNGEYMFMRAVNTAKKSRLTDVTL

[4] = biological target: cynomolgus PD-1 (Macaca fascicularis (cynomolgus)); assay: Octet (BLI), global 1:1 binding model
Sequence of cynomolgus PD-1 (Macaca fascicularis (cynomolgus)) (Q15116 other isoform, or with tags, fused parts or gaps limits assumed): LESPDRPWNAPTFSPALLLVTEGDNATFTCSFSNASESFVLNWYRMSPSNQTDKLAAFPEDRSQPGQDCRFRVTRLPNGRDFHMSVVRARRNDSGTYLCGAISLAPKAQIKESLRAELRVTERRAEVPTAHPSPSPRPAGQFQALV

[5] = biological target: cynomolgus ICOS (Macaca fascicularis (cynomolgus)); assay: Octet (BLI), global 1:1 binding model
Sequence of cynomolgus ICOS (Macaca fascicularis (cynomolgus)) (Q9Y6W8 21-140 H101R limits assumed): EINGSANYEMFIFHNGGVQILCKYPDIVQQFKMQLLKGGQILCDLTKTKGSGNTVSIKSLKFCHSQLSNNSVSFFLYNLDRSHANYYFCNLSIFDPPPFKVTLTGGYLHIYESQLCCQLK

human PD-1 (human) = human PD-1 (human) (UniProt Q15116); assay: Octet (BLI), global 1:1 binding model
Sequence of human PD-1 (human) (Q15116 25-170 limits assumed): as the sequence (Q15116 other isoform, or with tags, fused parts or gaps limits assumed) above, with E2D, A10P, L19V, A35T, R75Q, A144T counted along it

huICOS = huICOS (UniProt Q9Y6W8); assay: Octet (BLI), global 1:1 binding model
Sequence of huICOS (Q9Y6W8 21-140 limits assumed): as the sequence (Q9Y6W8 21-140 H101R limits assumed) above, with R81H counted along it

Sequence of human PD-1 expressed on cells (human) (Q15116 25-288 limits assumed): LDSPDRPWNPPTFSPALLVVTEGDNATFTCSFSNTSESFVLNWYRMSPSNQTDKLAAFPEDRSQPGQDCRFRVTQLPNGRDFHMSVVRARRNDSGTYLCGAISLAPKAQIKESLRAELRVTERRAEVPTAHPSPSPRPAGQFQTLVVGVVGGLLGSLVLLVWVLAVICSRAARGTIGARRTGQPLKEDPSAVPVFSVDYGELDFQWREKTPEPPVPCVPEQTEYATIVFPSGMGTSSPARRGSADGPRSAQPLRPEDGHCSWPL

With XmAb23104 (bispecific antibody) the EC10 [1] was 0.003 µg/mL, the EC90 [1] was 5.3 µg/mL and the EC90 [2] was 7.1 µg/mL. The EC10 [3] was 0.02 µg/mL, the EC90 [3] was 0.6 µg/mL and the Kd [4] was 5.8 nM. It also gave a Kd [5] of 2.6 nM, a Kd (human PD-1 (human)) of 2.8 nM and a Kd (huICOS) of 2.9 nM.
